Source: publication PMC8614764, “Sulfane Sulfur Is a Strong Inducer of the Multiple Antibiotic Resistance Regulator MarR in Escherichia coli” (Antioxidants, 2021)
Changes are numbered by the printed parent chain.

Experiments:
[1] = molecular target: T1, MarR-5XS C47S;C51S;C54S;C108S;C111S (Escherichia coli MG1655) (UniProt P27245); test: EMSA; settings: EMSA: 10 mM Tris, 50 mM KCl, 5% glycerin, pH 8.0, 25 C, 30 min, 20 nM probe, 15 uL; 6% native PAGE
T1 sequence: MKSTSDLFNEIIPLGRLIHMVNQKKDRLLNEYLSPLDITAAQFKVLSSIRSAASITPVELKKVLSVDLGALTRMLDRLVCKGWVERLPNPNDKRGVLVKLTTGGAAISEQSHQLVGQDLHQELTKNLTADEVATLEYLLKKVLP

[2] = molecular target: T2, MarR (Escherichia coli MG1655) (UniProt P27245); test: EMSA; settings: EMSA: 10 mM Tris, 50 mM KCl, 5% glycerin, pH 8.0, 25 C, 30 min, 20 nM probe, 15 uL; 6% native PAGE
T2 sequence: T1 sequence with S47C, S51C, S54C, S108C, S111C

P27245 = test: SEC; Superdex-200, 10 mM Tris-HCl pH 8.0, 100 mM NaCl; MarR-5XS (25 µM) after 400 µM H2Sn for 20 min; dimers to tetramer; mass calibrated with BSA (67 kDa) and T7 RNA polymerase (99 kDa)
[3] = molecular target: the molecule itself; test: cross-linking; LC-MS/MS of tryptic peptides of MarR reacted with 10-fold H2Sn, anaerobic, room temperature, 30 min; free thiols blocked with iodoacetamide; disulfide- and trisulfide-linked Cys80 peptides identified
[4] = molecular target: the molecule itself; test: SEC; Superdex-200, 10 mM Tris-HCl pH 8.0, 100 mM NaCl; MarR-5XS (25 µM) after 400 µM H2Sn for 20 min; dimers to tetramer; mass calibrated with BSA (67 kDa) and T7 RNA polymerase (99 kDa)
[5] = molecular target: the molecule itself; test: SEC; Superdex-200, 10 mM Tris-HCl pH 8.0, 100 mM NaCl; untreated MarR-5XS, 25 µM; monomers to dimer

Molecule: CATCGCATTGAACAAAACTTGAACCGATTTAGCAAAACGTGGCATCGGTCAATTCATTCATTTGACTTATACTTGCCTGGGCAATATTATCCCCTGCAAC (double strand) [marRAB promoter EMSA probe]
- binding [1]: binds
- binding [2]: binds

B1: H2Sn-treated MarR-5XS (protein)
chain: T1 sequence
- percent of protein as dimer (SEC peak area) (P27245): the dimer, tetramer, and multimer represented 37.4%, 54.1%, and 8.5%
- percent of protein as multimer (SEC peak area) (P27245): the dimer, tetramer, and multimer represented 37.4%, 54.1%, and 8.5%
- percent of protein as tetramer (SEC peak area) (P27245): the dimer, tetramer, and multimer represented 37.4%, 54.1%, and 8.5%

B2: H2Sn-treated MarR (natural protein)
chain: T1 sequence with S47C, S51C, S54C, S108C, S111C
modifications: Cys80 linked to Cys80 of another chain by a disulfide (Cys80-Cys80) or trisulfide (Cys80-S-Cys80) bond
notes: Multiple antibiotic resistance regulator MarR of E. coli MG1655, gene b1530; primers run from the GTG start codon to the stop codon; treated with polysulfide (H2Sn); SEC was done only with MarR-5XS; The vector pET30a may add further residues between the His tag and MarR (surmised from the primer); also called pET30-MarR product; source: E. coli BL21, purified (Ni-NTA) in an anaerobic chamber, …
- binding result [3]: binds

B3: H2Sn-treated MarR-5XS (natural protein)
chain: T1 sequence
modifications: Cys80 disulfide between chains after H2Sn treatment (disulfide-stabilized tetramer)
notes: Multiple antibiotic resistance regulator MarR of E. coli MG1655, gene b1530; primers run from the GTG start codon to the stop codon; all Cys except Cys80 changed to Ser; treated with polysulfide (H2Sn); The treated sample is a mixture of dimer, tetramer and possibly multimers by SEC; the tetramer is the main species; The disulfide and trisulfide at Cys80 were identified by LC-MS/MS on treated …
- stoichiometry N [4]: 4

B4: MarR-5XS (untreated) (natural protein)
chain: T1 sequence
notes: Multiple antibiotic resistance regulator MarR of E. coli MG1655, gene b1530; primers run from the GTG start codon to the stop codon; all Cys except Cys80 changed to Ser; Made from pET30a; Primarily a dimer by SEC; also called MarR/5CS; MarR-5CS; source: E. coli BL21(DE3), purified (Ni-NTA, PD-10 desalting) under anaerobic conditions
- stoichiometry N [5]: 2
